This is an account of results in patent publication US20240002540A1 (KEYMED BIOSCIENCES CHENGDU, published 2024).

As usually defined, the EC50 (read off the curve) is the concentration needed to bring the measured effect to its halfway point. What is called EC50 is the concentration needed to bring the measured effect to its halfway point. A word on the Kd: it is the concentration at which binding is half-saturated.

Changes are numbered by the printed parent chain.

For test [1], the target named is T1, human CD3 on T cells (Jurkat cells; human peripheral blood CD4+ and CD8+ T-cells) (human, UniProt P07766 23-207).
T1 construct: whole, on cells; the other chains of the complex are present on the cells; also called CD4T; CD4 + T
The test can be described thus: flow cytometry on human peripheral blood CD8+ T cells.

Test [2] deals with T1, human CD3 on T cells (Jurkat cells; …). The test can be described thus: flow cytometry on human peripheral blood CD4+ T cells.
Test [3] shares this target. The test can be described thus: flow cytometry on human peripheral blood CD4+ T-cells. As to the method: (§1) Fresh human peripheral blood was taken and PBMC was isolated by Ficoll. Paque Plu (GE, 17-1440-03). PBMC was adjusted to 5×10⁵ cells/mL with 4% calf serum (Hyclone, SH30626.06), 100 μL/well was added to a 96-well U-plate, the supernatant was centrifuged off and 100 μL of gradient diluted antibody (with starting concentration of 1800 nM, 3-fold dilution, 10 gradients) was added to each well and incubated for 60 min at 4° C. 50 μL/well of Alexa Fluro647 labeled goat anti-human IgG Fc (1: 300 dilution) was added to the secondary antibody, with ice bath for 20 min, and 50 μL/well PI added after washing once, incubated for 5 min, and flow cytometer (BD C6) was used for detection. The control antibody REGN5458 was synthesized and prepared according to US20200024356.

Test [4] concerns the target T2, human BCMA on cells (human, UniProt Q02223 1-184).
T2 construct: whole, on cells; also called Human BCMA-CHO; CHO-hBCMA
T2 sequence (looked up): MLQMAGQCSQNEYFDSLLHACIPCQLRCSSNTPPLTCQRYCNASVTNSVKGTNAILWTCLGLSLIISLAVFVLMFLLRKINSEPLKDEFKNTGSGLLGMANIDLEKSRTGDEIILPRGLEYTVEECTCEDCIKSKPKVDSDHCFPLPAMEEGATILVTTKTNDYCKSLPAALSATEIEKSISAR
The test can be described thus: flow cytometry on RPMI-8226 cells. The procedure:
(§2) 50 μL/well Alexa Fluro647 labeled goat anti-human IgG Fc (1: 300 dilution) were added to the secondary antibody, incubated on ice for 20 min, added with 50 μL/well PI solution (1: 300) after washing once, incubated for 5 min, and flow cytometer was used to make detection.

For test [5], the target named is T1, human CD3 on T cells (Jurkat cells; …). In words: flow cytometry on human peripheral blood CD8+ T-cells. The procedure: as §1
For test [6], the target named is T3, human BCMA recombinant antigen (human, UniProt Q02223 1-54, limits assumed).
T3 sequence (looked up): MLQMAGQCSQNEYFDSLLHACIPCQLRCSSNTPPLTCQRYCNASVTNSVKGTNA
The test can be described thus: SPR (Biacore T200), antigen amine-coupled to CM5 chip, antibody as analyte, 1:1 model. As to the method:
(§3) 10 μg/mL human or cynomolgus monkey BCMA or CD3εγ recombinant antigen was bound to a CM5 chip (GE healthcare) by amino conjugating, while the amount of antigen bound was controlled to approximately 200 RU. After baseline plateau, gradient diluted antibodies (7 gradients of 2-fold dilutions from 10 μg/mL) were flowed through the chip at a flow rate of 30 μL/min for a binding time of 350 seconds and a dissociation time of 600 seconds. Kinetic constants were fitted using Biacore T200 evaluation software with a 1: 1 binding model.
(In general: Surface plasmon resonance follows binding to a sensor surface in real time, without labels.)

Test [7] concerns the target cynomolgus monkey BCMA recombinant antigen (cynomolgus monkey, UniProt A0A2K5UD97 1-53). The test is described as above. The procedure: as §3
The target of test [8] is T4, human CD3εγ-Fc heterodimer (human).
T4 construct: also called human CD3εγ protein; human CD3εγ recombinant protein
T4 chain 1: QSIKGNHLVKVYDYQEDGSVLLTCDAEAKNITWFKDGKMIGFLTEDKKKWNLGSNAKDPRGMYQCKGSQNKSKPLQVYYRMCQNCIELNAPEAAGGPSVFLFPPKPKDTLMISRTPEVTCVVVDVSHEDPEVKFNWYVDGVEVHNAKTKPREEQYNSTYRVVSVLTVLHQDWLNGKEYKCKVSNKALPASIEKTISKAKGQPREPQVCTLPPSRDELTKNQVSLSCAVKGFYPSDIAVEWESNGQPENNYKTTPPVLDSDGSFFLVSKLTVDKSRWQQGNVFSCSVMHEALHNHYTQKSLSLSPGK
T4 chain 2: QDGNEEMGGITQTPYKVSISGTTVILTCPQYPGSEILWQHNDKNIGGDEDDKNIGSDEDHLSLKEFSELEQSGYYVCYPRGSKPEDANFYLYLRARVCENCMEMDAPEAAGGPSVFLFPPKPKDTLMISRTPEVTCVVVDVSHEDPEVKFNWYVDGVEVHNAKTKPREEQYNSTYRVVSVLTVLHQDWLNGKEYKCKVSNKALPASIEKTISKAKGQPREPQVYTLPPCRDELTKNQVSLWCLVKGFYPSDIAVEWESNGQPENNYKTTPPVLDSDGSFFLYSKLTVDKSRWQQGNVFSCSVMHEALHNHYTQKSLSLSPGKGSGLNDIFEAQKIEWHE
The test is described as above. The procedure:
as §3

Test [9] deals with T5, Cynomolgus monkey CD3εγ-Fc heterodimer (cynomolgus monkey).
T5 construct: also called cynomolgus monkey CD3εγ protein
T5 chain 1: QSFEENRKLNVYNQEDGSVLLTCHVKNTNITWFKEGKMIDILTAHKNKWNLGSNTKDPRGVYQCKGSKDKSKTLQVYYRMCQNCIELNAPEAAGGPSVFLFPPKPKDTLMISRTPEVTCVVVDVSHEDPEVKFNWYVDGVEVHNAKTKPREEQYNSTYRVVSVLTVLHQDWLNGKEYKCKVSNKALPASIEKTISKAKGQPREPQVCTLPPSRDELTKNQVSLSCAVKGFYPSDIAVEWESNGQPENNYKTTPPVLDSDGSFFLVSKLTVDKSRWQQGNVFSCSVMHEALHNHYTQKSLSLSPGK
T5 chain 2: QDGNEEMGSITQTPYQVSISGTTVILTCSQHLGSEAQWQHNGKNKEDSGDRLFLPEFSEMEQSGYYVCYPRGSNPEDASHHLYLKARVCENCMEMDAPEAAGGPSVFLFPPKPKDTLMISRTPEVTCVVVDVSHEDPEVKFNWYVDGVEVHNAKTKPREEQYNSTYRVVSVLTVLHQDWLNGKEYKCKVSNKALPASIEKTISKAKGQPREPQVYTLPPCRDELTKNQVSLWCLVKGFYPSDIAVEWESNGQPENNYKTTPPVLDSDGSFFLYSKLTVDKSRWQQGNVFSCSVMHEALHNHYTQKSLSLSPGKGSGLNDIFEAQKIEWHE
Described as above. As to the method: as §3

Test [10] concerns the target T1, human CD3 on T cells (Jurkat cells; …). The test can be described thus: flow cytometry on Jurkat cells. As to the method: The cells were adjusted to 5×10^5 cells/mL with 4% calf serum, 100 μL/well was added to 96-well U-plate, 300 g was centrifuged to removed the supernatant, 100 μL/well of gradient diluted antibody (initial concentration: 1800 nM, 3-fold dilution, 10 gradients) was added and incubated at 4° C. for 60 min. […] 50 μL/well PI was added after washing once, incubated for 5 min, and detected with flow cytometer (BD C6).

For test [11], the target named is T2, human BCMA on cells. The test can be described thus: flow cytometry on CHO-human BCMA cells. The procedure:
as §2
For orientation: In flow cytometry, cells or beads pass a laser one at a time.

The target of test [12] is T2, human BCMA on cells. In words: flow cytometry on NCI-H929 cells. As to the method: as §2
The target of test [13] is T5, Cynomolgus monkey CD3εγ-Fc heterodimer. The test can be described thus: ELISA on coated cynomolgus monkey CD3εγ protein (panel 'Monkey CD3εγ dimer'). As to the method: Human CD3εγ protein and cynomolgus monkey CD3εγ protein were coated separately overnight at 4° C. After blocking with 2% skim milk, different dilutions of CD3 antibody were added to each well and incubated for 1 hour. After the secondary antibody was developed by adding HPR-labeled goat anti-human IgG Fc and TMB solution, the reaction was stopped with concentrated sulfuric acid, and the absorbance was read at 450 nm.
On the technique in general: An ELISA detects its analyte on a solid surface through an enzyme-linked reagent.

cynomolgus monkey BCMA recombinant antigen, sequence (A0A2K5UD97 entry or part of it): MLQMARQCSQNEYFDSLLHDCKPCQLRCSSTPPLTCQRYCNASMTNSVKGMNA

B1: REGN5458 (antibody, V domains shown)
VH: EVQLVESGGGLVQPGRSLRLSCAASGFTFDDYSMHWVRQAPGKGLEWVSGISWNSGSKGYADSVKGRFTISRDNAKNSLYLQMNSLRAEDTALYYCAKYGSGYGKFYHYGLDVWGQGTTVTVSS
VL: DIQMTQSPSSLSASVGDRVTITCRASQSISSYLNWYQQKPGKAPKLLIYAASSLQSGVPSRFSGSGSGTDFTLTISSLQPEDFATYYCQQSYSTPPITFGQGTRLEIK
Take B1: the “EC50 (read off the curve)” value in test [1] and in test [2] was about 10 nM each time.

B2: BCMA×CD3 κλ006 (bispecific antibody, human IgG4 S228P, kappa, lambda)
light 1: DIVLTQSPASLAVSPGQRATITCRASKSVTTSGYSYIHWYQKKPGQPPKLLIYLASDLEAGVPARFSGSGSGTDFTLTINPVEAEDTANYYCQHSRELPWTFGQGTKVEIKRTVAAPSVFIFPPSDEQLKSGTASVVCLLNNFYPREAKVQWKVDNALQSGNSQESVTEQDSKDSTYSLSSTLTLSKADYEKHKVYACEVTHQGLSSPVTKSFNRGEC
heavy 1: QVQLVQSGSELKKPGASVKVSCKASGYIFTNFGMNWVREAPGQGLEWMGWINTYTGEQIYADGFTGRFVFSLDTSASTAYLQISSLKAEDTAVYFCARGEIYYGYDVGFVYWGQGTLVTVSSASTKGPSVFPLAPCSRSTSESTAALGCLVKDYFPEPVTVSWNSGALTSGVHTFPAVLQSSGLYSLSSVVTVPSSSLGTKTYTCNVDHKPSNTKVDKRVESKYGPPCPPCPAPEFEGGPSVFLFPPKPKDTLMISRTPEVTCVVVDVSQEDPEVQFNWYVDGVEVHNAKTKPREEQFNSTYRVVSVLTVLHQDWLNGKEYKCKVSNKGLASSIEKTISKAKGQPREPQVCTLPPSQEEMTKNQVSLSCAVKGFYPSDIAVEWESNGQPENNYKTTPPVLDSDGSFFLVSKLTVDKSRWQEGNVFSCSVMHEALHNHYTQKSLSLSLGK
light 2: QAVVTQEPSLTVSPGGTVTLTCRSSTGAVTTSNYANWVQEKPGQAPRGLIGGTNKRAPWTPARFSGSLLGGKAALTITGAQAEDEAEYYCVLWYSNLWVFGGGTKLTVLGQPKAAPSVTLFPPSSEELQANKATLVCLISDFYPGAVTVAWKADSSPVKAGVETTTPSKQSNNKYAASSYLSLTPEQWKSHRSYSCQVTHEGSTVEKTVAPTECS
heavy 2: EVQLVESGGGLVQPGGSLRLSCAASGFTFNTYAMNWVRKAPGKGLEWVGRIRSKYNNYATYYADSVKDRFTISRDDSKNSLYLQMNSLKTEDTAVYYCVRHGNFGNSYVSWFAYWGQGTLVTVSSASTKGPSVFPLAPCSRSTSESTAALGCLVKDYFPEPVTVSWNSGALTSGVHTFPAVLQSSGLYSLSSVVTVPSSSLGTKTYTCNVDHKPSNTKVDKRVESKYGPPCPPCPAPEFEGGPSVFLFPPKPKDTLMISRTPEVTCVVVDVSQEDPEVQFNWYVDGVEVHNAKTKPREEQFNSTYRVVSVLTVLHQDWLNGKEYKCKVSNKGLASSIEKTISKAKGQPREPQVYTLPPCQEEMTKNQVSLWCLVKGFYPSDIAVEWESNGQPENNYKTTPPVLDSDGSFFLYSKLTVDKSRWQEGNVFSCSVMHEALHNHYTQKSLSLSLGK
B2: the EC50 in test [3] is 91 nM; with human BCMA on cells [4], 19 nM; in test [5], 93 nM; in test [10], 56 nM; with human BCMA on cells [11], 16 nM; with human BCMA on cells [12] it was 32 nM. Besides, the Kd in test [6] was determined as 1.2 nM; in test [7] it was 0.1 nM; in test [8], 27 nM; in test [9], 33 nM.

B3: aCD3-hVH9/VL2 (antibody, human IgG4, V domains shown)
VH: EVQLVESGGGLVQPGGSLRLSCAASGFTFNTYAMNWVRKAPGKGLEWVGRIRSKYNNYATYYADSVKDRFTISRDDSKNSLYLQMNSLKTEDTAVYYCVRHGNFGNSYVSWFAYWGQGTLVTVSS
VL: QAVVTQEPSLTVSPGGTVTLTCRSSTGAVTTSNYANWVQEKPGQAPRGLIGGTNKRAPWTPARFSGSLLGGKAALTLSGAQPEDEAEYYCALWYSNLWVFGGGTKLTVL
notes: also called humanized anti-CD3 antibody hVH9/VL2
For B3, the “EC50 (read off the curve)” value in test [13] was about 0.04 ng/mL.

B4: aCD3-hVH9/VL5 (antibody, human IgG4, V domains shown)
VH: B3 VH
VL: B3 VL with L77I, S78T, P82A, A91V
notes: also called humanized anti-CD3 antibody hVH9/VL5
For the molecule B4, in [13], the “EC50 (read off the curve)” value is about 0.06 ng/mL.
